Laboratory results: US8343490B2, “Monoclonal antibody SC104 and derivative thereof specifically binding to a sialyltetraosyl carbohydrate as a potential anti-tumor therapeutic agent” (Cephalon Australia Pty Ltd, priority 2004, dated 2013)

Experiment: HPTLC immunostaining of C170 lipid extract fractions
Type: binding
Protocol: • Lipid extraction from C170 tumour cells. A pellet of C170 cells (1 ml packed cell volume) was obtained by trypsinisation of a static adherent tissue culture. The pellet was washed in PBS and the excess buffer removed by aspiration following centrifugation, then stored at −80° C. The pellet was extracted with chloroform:methanol (3:1, v/v, 19 ml). The resultant emulsion was centrifuged at 8,000 rpm in a 50 ml solvent resistant (Tefzel) centrifuge tube for 15 min at 4° C. The supernatant was dried down using a rotary evaporator at 30° C. and resuspended in a small volume (˜1 ml) chloroform:methanol:0.5% CaCl2(aq) (50:40:10). • HPTLC analysis of lipid extracts The sample was multiply spotted onto a Merck HPTLC plate and developed in chloroform:methanol:0.5% CaCl2(aq) (50:40:10) as standard. The plates were dried and then placed in an iodine vapour tank. Bands were marked in pencil and the iodine allowed to evaporate off the plate over night. The plates were then immunostained in order to localise the antigen. • Immunostaining of developed HPTLC plates. For SC104 immunostaining, the plates were immersed in polyisobutyl methylmethacrylate (0.1% w/v solution) hexane:chloroform (9:1) for 15 seconds then allowed to dry. The plates were then blocked in 3% BSA in PBS for 1 hr at room temperature, followed by incubation in either test antibody solution (10 μg/ml) or BSA solution, for 1 hr at room temperature. The plates were then washed three times in PBS/Tween-20 (0.1%), before being incubated in rabbit anti-mouse HRP conjugate from Dako (1/250 in PBS) for 1 hr at room temperature. The plates were then washed three times in PBS/Tween −20(0.1%) and once in 10 mM Tris, 100 mM NaCl pH 7.0, 0.1% Tween and developed in Sigma-FAST […] reagent. • Chemical staining of developed HPTLC plates. Orcinol staining was employed to detect the presence of carbohydrate moieties. Developed HPTLC plates were allowed to dry before spraying with orcinol reagent until fully coated. The plates were dried in a stream of hot air and incubated at 100° C. for 15 minutes. Ninhydrin staining was used to detect molecules containing free amino groups. Developed HPTLC plate were first allowed to dry and then dipped in ninhydrin solution (0.25% ninhydrin w/v in acetone) until fully wetted. The plate was then allowed to develop at room temperature for several hours. Results
• Silica column fractionation of lipid extract. A gravity column (150 mm i.d.) was packed with a silica slurry in chloroform:methanol:0.5% CaCl2(aq) (50:40:10). The C170 extract, re-dissolved in ˜1 ml chloroform:methanol:0.5% CaCl2(aq) (50:40:10) was loaded onto the column and eluted using the same solvent conditions. Fractions were collected and analysed by HPTLC. […]

B1: SC104: mouse IgG1 monoclonal antibody specific for a sialyltetraosyl carbohydrate, raised by immunisation with colorectal cancer cell lines (antibody, V domains shown)
VH: DVQLQESGPDLVKPSQSLSLTCTVTGYSITSGYSWHWVRQFPGNKMEWMGHIHFSGRPTYNPSLSSRISITRDTSKNQFLLQLKFVTTEDTSTYFCARKGKGSDDGLNYWGQGISVTVSS
VL: ENVLTQSPVIMSASPGEKVTMTCSASSSLSYIHWYQQKSRTSPKLWIYDTSNLASGVPGRFSGSGSGNSYSLTISSMEAEDVATYYCFQGSEYPLTFGGGTKLEMT
- binding after chemical removal of sialic acids (acid hydrolysis) (0.05 M sulphuric acid, 80° C., 2 hrs): complete loss of SC104 binding
- binding to asialo form (HPTLC immunostaining): does not bind to an asialo form
- binding to sialylated glycolipid forms (HPTLC immunostaining, silica column fractions): bind to a mono, di and even polysialylated glycolipid
- binding after ceramide glycanase removal of oligosaccharides (aqueous and organic phase, FIG. 8): loss of SC104 binding in both fractions
